{
  "source": "patent US20150159134A1",
  "about": "“METHOD FOR PRODUCING RETINAL PIGMENT EPITHELIAL CELLS” (PFIZER LIMITED, priority 2013, published 2015)",
  "molecules": {"B1": {"name": "activin A: activin pathway activator (protein, UniProt P08476 311-426, looked up)", "Inhibin beta A chain": "GLECDGKVNICCKKQFFVSFKDIGWNDWIIAPSGYHANYCEGECPSHIAGTSGSSLSFHSTVINHYRMRGHSPFANLKSCCVPTKLRPMSMLYYDDGQNIIKKDIQNMIVEECGCS"}, "B2": {"name": "BMP4/7: recombinant BMP4/7 heterodimer protein, BMP pathway activator (protein, UniProt P12644 293-408; P18075 293-431, looked up)", "Bone morphogenetic protein 4": "SPKHHSQRARKKNKNCRRHSLYVDFSDVGWNDWIVAPPGYQAFYCHGDCPFPLADHLNSTNHAIVQTLVNSVNSSIPKACCVPTELSAISMLYLDEYDKVVLKNYQEMVVEGCGCR", "Bone morphogenetic protein 7": "STGSKQRSQNRSKTPKNQEALRMANVAENSSSDQRQACKKHELYVSFRDLGWQDWIIAPEGYAAYYCEGECAFPLNSYMNATNHAIVQTLVHFINPETVPKPCCAPTQLNAISVLYFDDSSNVILKKYRNMVVRACGCH", "modifications": "heterodimer"}, "B3": {"name": "BMP4: BMP pathway activator (protein, UniProt P12644 293-408, looked up)", "Bone morphogenetic protein 4": "B2 Bone morphogenetic protein 4"}, "B4": {"name": "BMP7: BMP pathway activator (protein, UniProt P18075 293-431, looked up)", "Bone morphogenetic protein 7": "B2 Bone morphogenetic protein 7"}},
  "assay_type_in_all_cases": "cell-based, human",
  "key": {"[1]": {"test_system": "induced pluripotent cells (iPSCs)", "experiment": "Directed differentiation of iPSCs (immunostaining)", "conditions": "following replating at Day 9 in the presence of Activin A", "protocol": "The directed differentiation protocol was performed on induced pluripotent cells (iPSCs). IPSCs were generated from erythroblasts obtained from healthy volunteers and reprogrammed using the CytoTune-iPS Reprogramming kit (Life Technologies, A13780-01/02). IPSCs were seeded in E8 medium at a density of 240000 cells/cm^2 and differentiated to Day 9-19 of the directed differentiation protocol with early replating. Induced cells refer to cells treated with LDN193189/SB-431542 from Day 2 to Day 6 followed by BMP4/7 from Day 6 to Day 9. Uninduced cells are maintained without exposure to both LDN193189/SB-431542 and BMP4/7. Immunostaining was performed for markers of interest. […] Following the second replete step at Day 9-19 and culturing for a period of 45 days, iPSCs derived RPE expressed a panel of RPE markers to similar levels seen in RPE derived by directed differentiation from ES cells as obtained by the protocol of example 8 (see FIGS. 15E, 15F and 15G)."}, "Shef-1 hESCs [2]": {"test_system": "Shef-1 hESCs", "experiment": "First replating step with supplemented media (immunocytochemistry, qPCR)", "source_text": "Cells replated at Day 12 were maintained from Day 9 to Day 12 in DMEM KSRXF alone before replating. […] Mature RPE cells sample obtained by spontaneous differentiation as disclosed in Example 10 (a) was used as a control to compare the similarity between the populations obtained upon the first replating step of directed differentiation and mature RPE cells. 19 days post replating, cells were fixed for immunocytochemistry and samples were collected for qPCR. […] QPCR analysis with a panel of markers also indicated Day 9 to be the optimum time for replating (FIGS. 4C, 4D and 4E). Similar results were obtained when cells were cultured on different matrices e.g Matrigel, Cellstart or Fibronectin before and after replate."}, "WA26 hESCs": {"test_system": "WA26 hESCs", "experiment": "Duration of exposure to activin A (CRALBP immunostaining)", "conditions": "100 ng/ml activin A", "protocol": "On Day 9, cells were replated into 96 well CellBind plates coated with Matrigel or Cellstart at a density of 500000 cells/cm^2. The cells were maintained in either DMEM KSRXF alone or DMEM KSRXF supplemented with 100 ng/ml activin A for different lengths of time e.g 3 days, 5 days, 10 days or 18 days. At D9-18, cells were fixed for immunostaining and stained for CRALBP, a marker of RPE cells."}, "Shef-1 hESCs [3]": {"test_system": "Shef-1 hESCs", "experiment": "Induction of RPE markers MITF and PMEL17 by BMP pathway activation (qPCR, immunocytochemistry)", "protocol": "This example illustrates the effect of a BMP pathway activator on RPE marker expression. Shef-1 hESCs were seeded onto Matrigel coated 96-well plates at a density of 125000 cells/cm^2. […] Cells for the uninduced control were left untreated. On Day 6, 100 ng/ml BMP4/7 or 100 ng/ml activin A+10 mM Nicotinamide or nothing was added to the media for 3 days. On Day 9, BMP4/7 or activin A and Nicotinamide were withdrawn and cells were treated with DMEM KSRXF alone for 4 days. Samples were prepared for RNA extraction and qPCR analysis.\nImmunocytochemistry was carried out in 96-well or 384-well format. Media was aspirated and 50 μL 4% paraformaldehyde (PFA) was added to each well and incubated for 35 minutes at room temperature. PFA was aspirated and cells washed 3×100 uL PBS(+/+). Cells were incubated for 1 hour at room temperature in the dark in blocking buffer (PBS(+/+)/5% normal donkey serum (NDS)/0.3% TritonX100). 1° antibodies were made up in PBS(+/+)/1% normal donkey serum (NDS)/0.3% TritonX100. 60 μL 1° antibody solution was added to each well and incubated for 1 hour at room temperature in the dark. Solution was aspirated and cells washed 3×100 uL PBS(+/+). 2° antibodies were made up in PBS(+/+)/1% normal donkey serum (NDS)/0.3% TritonX100. 60 uL 2° antibody solution was added to each well and incubated for 1 hour at room temperature in the dark. […]"}, "Shef-1 hESCs [4]": {"test_system": "Shef-1 hESCs", "experiment": "Alternative BMP pathway activators, MITF expression (immunostaining, qPCR)", "conditions": "Day 13; BMPs Day 6-9: 50-200 ng/ml BMP4/7 heterodimer, 200 ng/ml BMP4, 300 ng/ml BMP7, 100 ng/ml BMP2/6", "protocol": "Shef-1 hESCs were seeded onto Matrigel coated 96-well plates at a density of 125000 cells/cm^2. […] On Day 9, BMPs were withdrawn and cells maintained in DMEM KSRXF alone for 4 days. On Day 13, MITF expression was tested by Immunostaining and qPCR analysis."}},
  "note": "“Also recorded” adds a separate entry of the source.",
  "data": [
    {"molecule": "B1", "values": [
      {"measurement": "RPE marker CRALBP expression (immunostaining)", "setting": "[1]", "result": "upregulated"},
      {"measurement": "mature RPE marker expression (CRALBP, MERTK) by immunocytochemistry", "setting": "Shef-1 hESCs [2]; replating at D9, 100 ng/ml activin A, 19 days post replating", "result": "optimum and yielded high levels of RPE marker expression"},
      {"measurement": "induction of RPE cells differentiation / RPE markers by short exposure", "setting": "WA26 hESCs", "result": "sufficient for inducing RPE cells differentiation; also recorded: sufficient to induce expression of RPE markers"}
    ]},
    {"molecule": "B2", "values": [
      {"measurement": "expression of RPE markers MITF and PMEL17 (immunocytochemistry)", "setting": "Shef-1 hESCs [3]; LDN193189/SB-431542 followed by BMP4/7", "result": "confirmed expression of RPE markers"},
      {"measurement": "expression of RPE genes MITF and PMEL17 (qPCR)", "setting": "Shef-1 hESCs [3]; added Day 6 for 3 days after 4 days LDN193189/SB-431542, 100 ng/ml BMP4/7 or 100 ng/ml activin A+10 mM Nicotinamide, vs uninduced or LDN193189/SB-431542 only controls", "result": "induced expression of RPE genes"},
      {"measurement": "survival of replated cells", "setting": "Shef-1 hESCs [2]; replated into DMEM KSRXF with 100 ng/ml BMP4/7", "result": "did not survive"},
      {"measurement": "MITF expression (immunostaining and qPCR)", "setting": "Shef-1 hESCs [4]", "result": "induced expression of MITF to a similar level"}
    ]},
    {"molecule": "B3", "values": [
      {"measurement": "MITF expression (immunostaining and qPCR)", "setting": "Shef-1 hESCs [4]", "result": "induced expression of MITF to a similar level"}
    ]},
    {"molecule": "B4", "values": [
      {"measurement": "MITF expression (immunostaining and qPCR)", "setting": "Shef-1 hESCs [4]", "result": "induced expression of MITF to a similar level"}
    ]}
  ]
}
